# Test results: patent publication US20220112269A1 (WISCONSIN ALUMNI RESEARCH FOUNDATION, published 2022)
# Non-standard residues stand in square brackets, D forms with d. No end group written: not given here. Hyp = O=C(O)[C@@H]1C[C@@H](O)CN1
# B1: 4sbG-OKD ("OKD") (peptide)
# peptide: PXGPXGPXGPXGPKGPKGPKGPKGPXGPXGDXGDXGDXGDXG
# modifications: O = 4-hydroxyproline (Hyp)
# notes: Synthetic 42-residue collagen-mimetic peptide (nT=14)
# B2: OKD2-OKD2 (peptide)
# chain 1: PXGPXGPXGPKGPKGPKGPKGXXGPXGDXGDXGDXGDXGPXG
# chain 2: PXGPXGPCGPKGPKGPKGPKGPXGPXGDXGDXGDXGDXGPXG
# modifications: O = 4-hydroxyproline (Hyp); Cys in an interstrand disulfide bridge with Hcy of the other chain; O = 4-hydroxyproline (Hyp); Hcy = homocysteine, in an interstrand disulfide bridge with Cys of the other chain
# notes: Disulfide-linked dimer (nT 14-14)
# How the values were obtained:
# [1] = biological target: the molecule itself; test: AUC, CD, AFM, TEM, self-assembly
# AUC, CD, self-assembly = biological target: the molecule itself; test: AUC, CD, self-assembly
# [2] = biological target: the molecule itself; test: CD, DLS, rheology, self-assembly
# [3] = biological target: the molecule itself; test: CD, TEM, DLS, rheology, self-assembly
# [4] = biological target: the molecule itself; test: sedimentation equilibrium AUC, monomer + multimer model, 15000 rpm, 4 C; self-assembly, lower bound
# Method: Sedimentation equilibrium experiments were performed at the UW BIF with an XL-A analytical ultracentrifuge from Beckman Coulter (Brea, Calif.) equipped with an An-60 Ti rotor. Samples were prepared at 0.6 mg/mL in 10 mM sodium phosphate buffer, pH 7.0, but were diluted to 0.3 mg/mL prior to the experiment. Sample (100 μL) and matching buffer (110 μL) were placed in a cell with an Epon 12-mm double-sector charcoal-filled centerpiece from Beckman Coulter. Experiments were run at 4° C. for more than 7 days at speeds of 8.8, 15, 25, 36, and 60 k rpm, and gradients recorded at 231 nm were monitored until superimposable 4 h apart. A buffer density of 1.0011 g/mL and a partial specific volume of 0.6955 mL/g calculated based on amino-acid content was used for analysis. Equilibrium gradients at 4° C. were modeled as single and multiple non-interacting species through nonlinear least-squares fits to gradient data. Analysis was performed with programs written for IGOR PRO software from WaveMetrics (Lake Oswego, Oreg.) by Dr. D. R. McCaslin (UW BIF). Non-sedimenting baselines between 0.04-0.07 OD were applied for all samples during analysis.
# CD, DLS, self-assembly = biological target: the molecule itself; test: CD, DLS, self-assembly
# [5] = biological target: the molecule itself; test: CD, TEM, DLS, self-assembly of the disulfide-linked dimer
# CD, TEM, self-assembly = biological target: the molecule itself; test: CD, TEM, self-assembly
# [6] = biological target: the molecule itself; test: CD, TEM, DLS, self-association without fibers
# [7] = biological target: the molecule itself; test: AUC, CD, DLS, self-assembly
# [8] = biological target: the molecule itself; test: CD, TEM, DLS, self-assembly
protein,measurement,setting,value
"P[Hyp]GP[Hyp]GP[Hyp]GP[Hyp]GPKGPKGPKGPKGP[Hyp]GP[Hyp]GD[Hyp]GD[Hyp]GD[Hyp]GD[Hyp] (nT=14, printed without the last Gly) [4sb-OKD]",binding result,[1],binds
"P[Hyp]GP[Hyp]GP[Hyp]GPKGPKGPKGP[Hyp]GP[Hyp]GD[Hyp]GD[Hyp]GD[Hyp] (nT=11, printed without the last Gly) [3sb-OKD]",binding result,"AUC, CD, self-assembly",binds
P[Hyp]GP[Hyp]GP[Hyp]GPKGPKGPKGP[Hyp]GPKGP[Hyp]GD[Hyp]GD[Hyp]GD[Hyp]GP[Hyp]GD[Hyp]G (nT=14) [4sbG-gap4],binding result,[2],binds
P[Hyp]GP[Hyp]GPKGPKGPKGPKGP[Hyp]GP[Hyp]GD[Hyp]GD[Hyp]GD[Hyp]GD[Hyp]GP[Hyp]GP[Hyp]G (nT=14) [4sbG-OKDO],binding result,[3],binds
B1,Average oligomerization by AUC,[4],> 188 -mer
"PXGPXGPXGPKGPKGPKGPKGPXGPXGDXGDXGDXGDXGPXG (O = 4-hydroxyproline (Hyp), nT=14) [4sbG-OKD2]",binding result,[3],binds
"PXGPXGPXGPKGPKGPKGPKGXXGPXGDXGDXGDXGDXGPXG (O = 4-hydroxyproline (Hyp); Hcy = homocysteine, Single Hcy-bearing peptide, nT=14) [OKD2-h22]",binding result,"CD, DLS, self-assembly",binds
B2,binding result,[5],binds
"PXGPXGPCGPKGPKGPKGPKGPXGPXGDXGDXGDXGDXGPXG (O = 4-hydroxyproline (Hyp), Single Cys-bearing peptide, nT=14) [OKD2-C8]",binding result,"CD, DLS, self-assembly",binds
PKGPKGPKGP[Hyp]GP[Hyp]GD[Hyp]GD[Hyp]GD[Hyp]GP[Hyp]GP[Hyp]GP[Hyp]G (nT=11) [3sbG-KDO],binding result,"AUC, CD, self-assembly",binds
P[Hyp]GP[Hyp]GP[Hyp]GPKGPKGPKGP[Hyp]GP[Hyp]GD[Hyp]GD[Hyp]GD[Hyp]G (nT=11) [3sbG-OKD],binding result,"CD, TEM, self-assembly",binds
P[Hyp]GP[Hyp]GPKGPKGPKGP[Hyp]GPKGP[Hyp]GP[Hyp]GD[Hyp]GP[Hyp]GD[Hyp]GD[Hyp]GD[Hyp]G (nT=14) [4sbG-OKD2ctrl],binding result,[6],binds
"PKGPKGPKGP[Hyp]GP[Hyp]GD[Hyp]GD[Hyp]GD[Hyp]GP[Hyp]GP[Hyp]GP[Hyp] (not fully specified (C-terminus), nT=11, printed without the last Gly) [3sb-KDO]",binding result,[7],binds
P[Hyp]GPKGPKGPKGPKGP[Hyp]GP[Hyp]GD[Hyp]GD[Hyp]GD[Hyp]GD[Hyp]GP[Hyp]GP[Hyp]GP[Hyp]G (nT=14) [4sbG-KDO2],binding result,[8],binds
